Results: IntAct's records for PubMed 12586840

Target: ap2a_human TFAP2A (UniProt P05549)
Sequence (P05549 whole entry): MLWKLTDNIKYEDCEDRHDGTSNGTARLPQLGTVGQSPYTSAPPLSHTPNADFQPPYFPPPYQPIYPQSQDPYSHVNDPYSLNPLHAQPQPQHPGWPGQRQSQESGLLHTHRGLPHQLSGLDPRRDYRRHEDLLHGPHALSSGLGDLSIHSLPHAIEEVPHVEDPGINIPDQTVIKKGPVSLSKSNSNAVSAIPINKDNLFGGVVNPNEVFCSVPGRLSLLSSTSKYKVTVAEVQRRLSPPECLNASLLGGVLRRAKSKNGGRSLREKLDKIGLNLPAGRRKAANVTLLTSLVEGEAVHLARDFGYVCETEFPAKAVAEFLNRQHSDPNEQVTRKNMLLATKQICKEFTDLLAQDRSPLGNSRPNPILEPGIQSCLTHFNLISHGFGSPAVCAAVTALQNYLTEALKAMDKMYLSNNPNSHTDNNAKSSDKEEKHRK

Substance: Histone acetyltransferase p300 (Homo sapiens), Q09472 D1399Y
- effect of a mutation on the interaction: disrupting interaction
